Data from paper PMC11388340, “HIRA complex deposition of histone H3.3 is driven by histone tetramerization and histone-DNA binding”.

Experiments:
[1] = biological target: HIRA-WB;UBN1-NM (human;human, UniProt P54198;Q9NPG3 1-473;1-584, |); assay: fluorescence polarization; no histones; 20 mM HEPES pH 7.5, 150 mM NaCl, 0.5 mM TCEP, 0.001% Tween-20, 1 mg/ml BSA; 10 nM probe; temperature not stated; conditions: protein: recombinant;recombinant; tags: N-terminal His;; copies: 1;1; label: 5'-FAM on sense strand; blunt
[2] = biological target: HIRA-WB;UBN1-NM;ASF1a-C (human;human;human?, UniProt P54198;Q9NPG3;Q9Y294 1-473;1-584;1-156, ||); assay: as above; conditions: protein: recombinant;recombinant;recombinant; tags: N-terminal His;;GST cleaved with precision protease; copies: 1;1;1; label: 5'-FAM on sense strand; blunt
[3] = biological target: H3.3/H4 (Homo sapiens (H3.3); Xenopus laevis (H4), UniProt P84243;P62799 2-136;2-103); assay: fluorescence polarization; 20 mM HEPES pH 7.5, 150 mM NaCl, 0.5 mM TCEP, 0.001% Tween-20, 1 mg/ml BSA; 10 nM probe; temperature not stated
[4] = biological target: HIRA-WB;UBN1-NM;H3.3/H4 (human;human;Homo sapiens (H3.3); …, UniProt P54198;Q9NPG3;P84243;P62799 1-473;1-584;2-136;2-103, ||); assay: as above

B1: 10x ATGC 40-mer dsDNA (dsDNA)
DNA 1: ATGCATGCATGCATGCATGCATGCATGCATGCATGCATGC
DNA 2: GCATGCATGCATGCATGCATGCATGCATGCATGCATGCAT
With B1 the Kd [1] was 370 nM, the Kd [2] was 970 nM and the Kd [3] was 240 nM. For the same binder, the Kd [4] was 40 nM.
